In this data set the target is T1, crotonyl-S-SfaO (N-terminal 6x His-tagged free acyl carrier protein SfaO carrying a crotonyl thioester).
T1 chain: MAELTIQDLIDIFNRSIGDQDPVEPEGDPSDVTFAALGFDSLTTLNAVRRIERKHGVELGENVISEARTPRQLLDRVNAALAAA

B1: N-terminal 6x His-tagged SfaR (crotonyl-CoA reductase) (protein)
chain: VNEILSAVLSAEATAADFAALPLPESYRAITVHKDETEMFTGVGPADKDPRKSLHLDEVPVPELGPGEALVAVMASSVNYNSVWSSIFEPLPTFAFLERYGRRGELAKRHDLPYHVIGSDLAGVVLRTGPGVQAWKPGDEVVAHCLSVELESSDGHDDTMMDPEQRIWGFETNFGGLAELALVKSNQLMPKPRHLTWEEAAAPGLVNSTAYRQLVSRNGAQMKQGDNVLIWGASGGLGSYATQLALAGGANPVCVVSTPQKAAICRSMGAEAVIDRDAEDYRFWRDGNTQDPREWKRFGKRIRELTGGEDVDIVFEHPGRETFGASVFVARKGGTIVTCASTSGYEHQYDNRYLWMSLKRIIGSHFANYREAWEANRLVAKGRIHPTLSKVYPLEETGQAAFDVYGNVHHGKVGVLGLAPTEGLGVRDEEMRARHVGAINRFRPSAEPQTEPV
As for B1, the “activity of SfaR (reduction / reductive carboxylation) with crotonyl-S-SfaO as the substrate” value is reported as “failed to detect any activity of SfaR”.

Source of the values: patent US20110229941.
